B1: library; numbered along this chain (parent)
chain: MAAAAAAAAEQQSSNGPVKKSMREKAVERRSVNKEHNSNFKAGYIPIDEDRLHKTGLRGRKGNLAICVIILLFILAVINLIITLVIWAVIRIGPNGCDSMEFHESGLLRFKQVSDMGVIHPLYKSTVGGRRNENLVITGNNQPIVFQQGTTKLSVENNKTSITSDIGMQFFDPRTQNILFSTDYETHEFHLPSGVKSLNVQKASTERITSNATSDLNIKVDGRAIVRGNEGVFIMGKTIEFHMGGNMELKAENSIILNGSVMVSTTRLPSSSSGDQLGSGDWVRYKLCMCADGTLFKVQVTSQNMGCQISDNPCGNTH

Variants of: B1
Assay: SGCB cell-surface expression functional score (HA stain, bin4 vs bin1, normalised to synonymous) (log10 ratio); higher = more cell-surface SGCB (functional)
Summary of the method: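 HEK293 cells stably expressing alpha-, gamma- and delta-sarcoglycan received codon-saturation libraries of HA-tagged, YFP-fused human beta-sarcoglycan by lentiviral transduction at MOI <0.1, performed in duplicate. Cells positive for YFP were sorted after 72 hours and cultured for 5–7 days, then stained on ice with Alexa Fluor 647 anti-HA and fixed. Fixed cells were sorted into four 5% intensity bins and amplicon-sequenced, and the log ratio of highest-bin to lowest-bin variant frequency, as a median over codons and transductions, gives the functional score. Per section, synonymous variants were scaled to mean 0, SD 0.5.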

Variant | SGCB cell-surface expression functional score (log10)
L80A | 0.19
G259P | -0.37
I69S | 0.09
S14Y | -0.15
N132D | -0.52
I166F | 0.57
M305F | -0.74
I119S | -1.47
T301R | -0.14
D115I | -0.89
L295Y | -0.02
I309Q | -0.01
E28D | -0.25
V118P | -0.73
V18K | 0.16
K124M | -0.6
D165L | -0.58
P313Q | -0.3
I81E | 0.31
A2T | 0.11
V298Y | -1.36
T126M | 0.29
R30L | 0.15
L191K | -0.32

Variant | SGCB cell-surface expression functional score (log10)
H187Q | -0.38
V298Q | -1.06
D48R | -0.06
I47G | 0.36
Q308Y | 0.02
K41L | 0.1
N312G | -0.13
T265M | 1.41
V145Y | -0.43
D98Y | -0.66
E35M | 0.1
I218E | -1.24
F180G | -1.85
L257K | -0.27
S181N | -1
N304K | 0.07
S21R | 0.08
M305K | 0.09
M116P | -1.45
T83A | -0.17
V113T | -0.1
P313D | -0.42
T265W | 0.38
C97R | -1.75

Variant | SGCB cell-surface expression functional score (log10)
I234Y | -0.62
R60I | 0.5
H36A | 0.35
V261K | -1.55
S38R | -0.01
N258S | 0.66
F146H | -0.89
M100K | -2.02
C290M | -0.16
R207S | -1.22
R91W | -1.69
C288W | -0.68
T151K | -0.7
N246F | -1.49
C314F | -0.43
V232Q | -1.69
E28V | 0.15
D172K | -0.36
G59Q | -0.24
M289N | 0.11
R30W | 0.33
D115H | -0.53
K20S | 0.14
S270G | 0.32

Variant | SGCB cell-surface expression functional score (log10)
S254M | 0.79
S105P | -1.03
I137H | -1.24
A203G | -1.02
L277P | -1.21
P173V | 0.67
M243H | 0.52
A76R | -0.35
G128I | 0.01
D311E | -0.14
T160K | -2.03
S125F | -0.45
L84C | -0.21
S99H | -0.65
T265P | 0.25
P121Y | -0.96
E240V | 0.99
F180Q | -1.66
K61M | -0.03
G96E | -1.89
L295C | -0.2
T150W | 1.1
H190Y | 0.55
R51S | 0.04

Variant | SGCB cell-surface expression functional score (log10)
N304V | -1.11
E49R | 0.35
Q276S | -0.37
W87Y | 0
N229L | 0.33
A203I | -0.24
G315W | 0.43
D50H | 0.24
I69P | 0.36
P121C | 0.36
K152T | -0.04
A4S | 0.05
E230V | 0.49
H190E | -0.09
E248M | 0
E156V | -0.3
D98Q | -0.02
N79A | 0.21
A224T | 0.39
H242W | 0.6
K250H | 0.87
W87E | -0.7
K124T | 0.31
S31K | 0.25

Variant | SGCB cell-surface expression functional score (log10)
S38N | 0.37
G96L | -2.08
P313R | -0.02
F180C | -1.87
E240D | 0.58
T126A | 0.13
T186I | 0.3
Q299I | 0.37
V298L | -0.21
T182M | -1.87
K25Q | 0.5
K54W | 0.69
Y44A | 0.04
Q308G | -0.76
S272L | 0.07
T55C | 0.27
G62I | 0.26
H36P | 0.32
E24L | 0.02
T301F | -0.72
G194V | -1.31
S114Y | -1.47
N79F | -0.85
P143D | -0.9

Variant | SGCB cell-surface expression functional score (log10)
N39G | 0.13
V136H | -0.22
T213S | 0.08
R29H | -0.15
T138R | -0.08
I255W | -1.77
N253P | -0.52
S181Q | -1.57
N229K | 0.95
S13W | 0.8
D215H | -0.39
D98F | -0.64
I66S | 0.07
A9H | 0.18
L135Q | -1.5
E133Y | -0.25
F170Q | -0.12
V263F | 0.35
P121N | 0.38
R284P | -0.73
A4C | 0.4
L216Q | -0.15
S164A | -0.39

Source: the supplement of paper PMC10266784
